Source: patent publication US12467929
One block for each substance: values may come before it.

Key:
[1] = biological target: recombinant UBE3A protein (Homo sapiens (Human)) (UniProt Q05086); experiment: 2-step Simoa; capture Novus; UBE3A 10 ng/ml
[2] = biological target: recombinant UBE3A protein (Homo sapiens (Human)) (UniProt Q05086); experiment: 3-step Simoa; capture GTX; UBE3A 0.1 ng/ml
[3] = biological target: recombinant UBE3A protein (Homo sapiens (Human)) (UniProt Q05086); experiment: 2-step Simoa; capture GTX; UBE3A 0.01 ng/ml
[4] = biological target: recombinant UBE3A protein (Homo sapiens (Human)) (UniProt Q05086); experiment: 2-step Simoa; capture MS 2F6; UBE3A 0.01 ng/ml
[5] = biological target: recombinant UBE3A protein (Homo sapiens (Human)) (UniProt Q05086); experiment: 3-step Simoa; capture GTX; UBE3A 0.01 ng/ml
[6] = biological target: recombinant UBE3A protein (Homo sapiens (Human)) (UniProt Q05086); experiment: 2-step Simoa; capture GTX; UBE3A 1 ng/ml
[7] = biological target: recombinant UBE3A protein (Homo sapiens (Human)) (UniProt Q05086); experiment: 3-step Simoa; capture MS 2F6; UBE3A 1 ng/ml
[8] = biological target: recombinant UBE3A protein (Homo sapiens (Human)) (UniProt Q05086); experiment: 2-step Simoa; capture Novus; UBE3A 1 ng/ml
[9] = biological target: recombinant UBE3A protein (Homo sapiens (Human)) (UniProt Q05086); experiment: 3-step Simoa; capture MS 2F6; UBE3A 0.1 ng/ml
[10] = biological target: recombinant UBE3A protein (Homo sapiens (Human)) (UniProt Q05086); experiment: 3-step Simoa; capture Novus; UBE3A 0.01 ng/ml
[11] = biological target: recombinant UBE3A protein (Homo sapiens (Human)) (UniProt Q05086); experiment: 3-step Simoa; capture Novus; UBE3A 1 ng/ml
[12] = biological target: recombinant UBE3A protein (Homo sapiens (Human)) (UniProt Q05086); experiment: 3-step Simoa; capture Novus; UBE3A 0.1 ng/ml
[13] = biological target: recombinant UBE3A protein (Homo sapiens (Human)) (UniProt Q05086); experiment: 2-step Simoa; capture MS 2F6; UBE3A 1 ng/ml
[14] = biological target: recombinant UBE3A protein (Homo sapiens (Human)) (UniProt Q05086); experiment: 3-step Simoa; capture Novus; UBE3A 10 ng/ml
[15] = biological target: recombinant UBE3A protein (Homo sapiens (Human)) (UniProt Q05086); experiment: 2-step Simoa; capture MS 3E5; UBE3A 10 ng/ml
[16] = biological target: recombinant UBE3A protein (Homo sapiens (Human)) (UniProt Q05086); experiment: 3-step Simoa; capture GTX; UBE3A 10 ng/ml
[17] = biological target: recombinant UBE3A protein (Homo sapiens (Human)) (UniProt Q05086); experiment: 2-step Simoa; capture MS 2F6; UBE3A 10 ng/ml
[18] = biological target: recombinant UBE3A protein (Homo sapiens (Human)) (UniProt Q05086); experiment: 3-step Simoa; capture MS 2F6; UBE3A 10 ng/ml
[19] = biological target: recombinant UBE3A protein (Homo sapiens (Human)) (UniProt Q05086); experiment: 2-step Simoa; capture Novus; UBE3A 0.1 ng/ml
[20] = biological target: recombinant UBE3A protein (Homo sapiens (Human)) (UniProt Q05086); experiment: 2-step Simoa; capture MS 2F6; UBE3A 0.1 ng/ml
[21] = biological target: recombinant UBE3A protein (Homo sapiens (Human)) (UniProt Q05086); experiment: 2-step Simoa; capture Novus; UBE3A 0.01 ng/ml
[22] = biological target: recombinant UBE3A protein (Homo sapiens (Human)) (UniProt Q05086); experiment: 3-step Simoa; capture GTX; UBE3A 1 ng/ml
[23] = biological target: recombinant UBE3A protein (Homo sapiens (Human)) (UniProt Q05086); experiment: 2-step Simoa; capture GTX; UBE3A 10 ng/ml

UniProt Q05086, sequence (Q05086 whole entry): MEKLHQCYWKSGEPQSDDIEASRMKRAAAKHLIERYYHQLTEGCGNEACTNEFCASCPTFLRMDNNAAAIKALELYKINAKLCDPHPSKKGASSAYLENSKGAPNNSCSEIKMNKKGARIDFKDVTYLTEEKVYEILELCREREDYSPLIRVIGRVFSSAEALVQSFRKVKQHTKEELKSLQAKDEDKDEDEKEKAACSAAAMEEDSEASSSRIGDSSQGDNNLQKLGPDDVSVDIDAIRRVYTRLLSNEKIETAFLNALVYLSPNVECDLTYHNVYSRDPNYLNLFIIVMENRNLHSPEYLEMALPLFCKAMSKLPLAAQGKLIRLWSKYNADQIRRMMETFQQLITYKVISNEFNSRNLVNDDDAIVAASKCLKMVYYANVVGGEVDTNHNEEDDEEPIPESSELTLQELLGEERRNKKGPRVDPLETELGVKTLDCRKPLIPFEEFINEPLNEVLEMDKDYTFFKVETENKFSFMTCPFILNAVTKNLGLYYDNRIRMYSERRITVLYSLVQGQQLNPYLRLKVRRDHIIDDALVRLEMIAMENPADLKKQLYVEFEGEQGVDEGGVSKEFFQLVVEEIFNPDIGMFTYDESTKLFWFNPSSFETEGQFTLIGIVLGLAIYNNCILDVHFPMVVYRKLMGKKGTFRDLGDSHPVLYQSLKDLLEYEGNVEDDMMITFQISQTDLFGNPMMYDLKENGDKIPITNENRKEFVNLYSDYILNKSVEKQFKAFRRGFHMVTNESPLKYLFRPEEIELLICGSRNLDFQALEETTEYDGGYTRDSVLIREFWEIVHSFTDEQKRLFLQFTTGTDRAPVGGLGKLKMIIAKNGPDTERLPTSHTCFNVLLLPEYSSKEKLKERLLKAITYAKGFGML

AEB1 [1]: 0.0616 | AEB2 [1]: 0.0585 | Ave AEB [1]: 0.0601 | Signal to Background [1]: 1.2 | AEB1 [2]: 0.0192 | AEB2 [2]: 0.0198 | Ave AEB [2]: 0.0195 | Signal to Background [2]: 0.91 | AEB1 [3]: 0.0483 | AEB2 [3]: 0.0494 | Ave AEB [3]: 0.0489 | Signal to Background [3]: 0.97 | AEB1 [4]: 0.0481 | AEB2 [4]: 0.0445 | Ave AEB [4]: 0.0463 | Signal to Background [4]: 0.69 | AEB1 [5]: 0.019 | AEB2 [5]: 0.021 | Ave AEB [5]: 0.02 | Signal to Background [5]: 0.94 | AEB1 [6]: 0.0504 | AEB2 [6]: 0.053 | Ave AEB [6]: 0.0517 | Signal to Background [6]: 1.02 | AEB1 [7]: 0.0178 | AEB2 [7]: 0.0198 | Ave AEB [7]: 0.0188 | Signal to Background [7]: 1.01 | AEB1 [8]: 0.0503 | AEB2 [8]: 0.0488 | Ave AEB [8]: 0.0496 | Signal to Background [8]: 0.99 | AEB1 [9]: 0.017 | AEB2 [9]: 0.0184 | Ave AEB [9]: 0.0177 | Signal to Background [9]: 0.95 | AEB1 [10]: 0.0217 | AEB2 [10]: 0.0245 | Ave AEB [10]: 0.0231 | Signal to Background [10]: 1.03 | AEB1 [11]: 0.0264 | AEB2 [11]: 0.0248 | Ave AEB [11]: 0.0256 | Signal to Background [11]: 1.14 | AEB1 [12]: 0.0223 | AEB2 [12]: 0.0228 | Ave AEB [12]: 0.0225 | Signal to Background [12]: 1 | AEB1 [13]: 0.0418 | AEB2 [13]: 0.0409 | Ave AEB [13]: 0.0413 | Signal to Background [13]: 0.62 | AEB1 [14]: 0.0258 | AEB2 [14]: 0.0245 | Ave AEB [14]: 0.0252 | Signal to Background [14]: 1.12 | AEB1 [15]: 0.407 | AEB2 [15]: 0.385 | Ave AEB [15]: 0.396 | Signal to Background [15]: 2.8 | AEB1 [16]: 0.0337 | AEB2 [16]: 0.034 | Ave AEB [16]: 0.0339 | Signal to Background [16]: 1.59 | AEB1 [17]: 0.0412 | AEB2 [17]: 0.0418 | Ave AEB [17]: 0.0415 | Signal to Background [17]: 0.62 | AEB1 [18]: 0.0251 | AEB2 [18]: 0.0292 | Ave AEB [18]: 0.0271 | Signal to Background [18]: 1.45 | AEB1 [19]: 0.0516 | AEB2 [19]: 0.0515 | Ave AEB [19]: 0.0516 | Signal to Background [19]: 1.03 | AEB1 [20]: 0.0426 | AEB2 [20]: 0.0425 | Ave AEB [20]: 0.0426 | Signal to Background [20]: 0.64 | AEB1 [21]: 0.0531 | AEB2 [21]: 0.0522 | Ave AEB [21]: 0.0527 | Signal to Background [21]: 1.05 | AEB1 [22]: 0.0243 | AEB2 [22]: 0.0204 | Ave AEB [22]: 0.0224 | Signal to Background [22]: 1.05 | AEB1 [23]: 0.0957 | AEB2 [23]: 0.0942 | Ave AEB [23]: 0.095 | Signal to Background [23]: 1.88
Substance: GTX101092 (GeneTex) (antibody)

AEB1 [1]: 0.0441 | AEB2 [1]: 0.0461 | Ave AEB [1]: 0.0451 | Signal to Background [1]: 2.71 | AEB1 [2]: 0.005 | AEB2 [2]: 0.0068 | Ave AEB [2]: 0.0059 | Signal to Background [2]: 0.97 | AEB1 [3]: 0.0082 | AEB2 [3]: 0.0072 | Ave AEB [3]: 0.0077 | Signal to Background [3]: 1.04 | AEB1 [4]: 0.0183 | AEB2 [4]: 0.0162 | Ave AEB [4]: 0.0172 | Signal to Background [4]: 1.05 | AEB1 [5]: 0.0064 | AEB2 [5]: 0.0053 | Ave AEB [5]: 0.0059 | Signal to Background [5]: 0.96 | AEB1 [6]: 0.0247 | AEB2 [6]: 0.0237 | Ave AEB [6]: 0.0242 | Signal to Background [6]: 3.26 | AEB1 [7]: 0.0095 | AEB2 [7]: 0.009 | Ave AEB [7]: 0.0092 | Signal to Background [7]: 1.06 | AEB1 [8]: 0.0174 | AEB2 [8]: 0.0179 | Ave AEB [8]: 0.0177 | Signal to Background [8]: 1.06 | AEB1 [9]: 0.0107 | AEB2 [9]: 0.0084 | Ave AEB [9]: 0.0095 | Signal to Background [9]: 1.1 | AEB1 [10]: 0.011 | AEB2 [10]: 0.0112 | Ave AEB [10]: 0.0111 | Signal to Background [10]: 1.06 | AEB1 [11]: 0.0125 | AEB2 [11]: 0.0145 | Ave AEB [11]: 0.0135 | Signal to Background [11]: 1.29 | AEB1 [12]: 0.014 | AEB2 [12]: 0.0114 | Ave AEB [12]: 0.0127 | Signal to Background [12]: 1.21 | AEB1 [13]: 0.0212 | AEB2 [13]: 0.0206 | Ave AEB [13]: 0.0209 | Signal to Background [13]: 1.27 | AEB1 [14]: 0.0168 | AEB2 [14]: 0.0179 | Ave AEB [14]: 0.0173 | Signal to Background [14]: 1.65 | AEB1 [15]: 0.15 | AEB2 [15]: 0.14 | Ave AEB [15]: 0.145 | Signal to Background [15]: 19.5 | AEB1 [16]: 0.0356 | AEB2 [16]: 0.0426 | Ave AEB [16]: 0.0391 | Signal to Background [16]: 6.42 | AEB1 [17]: 0.0437 | AEB2 [17]: 0.0449 | Ave AEB [17]: 0.0443 | Signal to Background [17]: 2.7 | AEB1 [18]: 0.0153 | AEB2 [18]: 0.0116 | Ave AEB [18]: 0.0134 | Signal to Background [18]: 1.54 | AEB1 [19]: 0.0167 | AEB2 [19]: 0.0132 | Ave AEB [19]: 0.0149 | Signal to Background [19]: 0.9 | AEB1 [20]: 0.0164 | AEB2 [20]: 0.0185 | Ave AEB [20]: 0.0175 | Signal to Background [20]: 1.06 | AEB1 [21]: 0.0255 | AEB2 [21]: 0.0175 | Ave AEB [21]: 0.0215 | Signal to Background [21]: 1.29 | AEB1 [22]: 0.0097 | AEB2 [22]: 0.0091 | Ave AEB [22]: 0.0094 | Signal to Background [22]: 1.54 | AEB1 [23]: 0.126 | AEB2 [23]: 0.13 | Ave AEB [23]: 0.128 | Signal to Background [23]: 17.3
Substance: NB500-240 (Novus) (antibody)
